Test results published in patent publication US20230212543.

Assays:
[1] = target: Asialylated Abatacept
[2] = target: Asialylated etanercept (etanercept treated with sialidase)
[3] = target: T1, TNFαR (the TNFα binding part of etanercept), P20333
T1 chain: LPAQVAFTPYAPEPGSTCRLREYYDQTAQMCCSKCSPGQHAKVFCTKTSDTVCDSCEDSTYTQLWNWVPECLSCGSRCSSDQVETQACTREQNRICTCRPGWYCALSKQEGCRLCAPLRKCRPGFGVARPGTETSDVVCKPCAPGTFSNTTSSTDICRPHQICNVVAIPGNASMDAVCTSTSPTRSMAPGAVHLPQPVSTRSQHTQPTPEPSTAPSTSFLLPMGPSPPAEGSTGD

[4] = target: Etanercept (native, fully glycosylated)

B1: LS (O-glycoprotein-specific endoprotease encoded by the Amuc1119 gene of Akkermansia muciniphila, with N-terminal Met and C-terminal GSG-His6) (protein)
chain: MEVTVPDALKDRIALKKTARQLNIVYFLGSDTEPVPDYERRLSELLLYLQQFYGKEMQRHGYGARSFGLDIKSPGRVNIIEYKAKNPAAHYPYENGGGWKAAQELDEFFKAHPDRKKSQHTLIIMPTWNDEKNGPDNPGGVPFYGMGRNCFALDYPAFDIKHLGQKTREGRLLTKWYGGMAHELGHGLNLPHNHQTASDGKKYGTALMGSGNYTFGTSPTFLTPASCALLDACEVFSVTPSQQFYEGKPEVEVGDVAISFKGDQILVSGNYKSPQTVKALNVYIQDPPYAVNQDYDAVSFSRRLGKKSGKFSMKIDKKELEGLNNNEFRISLMFILANGLHMQKHFTFHWDALQDYRDGSKSGSGHHHHHH
B1 was tested, and the “hydrolysis and release from double-mutant resin, SDS-PAGE” value [1] was “could be hydrolyzed and eluted from the double-mutant-resin by LS in 6 h but had a slightly more complete elution after 24 h”, the “hydrolysis and release from double-mutant resin, SDS-PAGE” value [2] was “could be hydrolyzed and eluted from the double-mutant-resin by LS in 6 h but had a slightly more complete elution after 24 h” and the “hydrolysis of substrate, SDS-PAGE” value [2] was “LS was able to hydrolyze etanercept in the presence of sialidase”. For the same protein, the “hydrolysis of substrate, SDS-PAGE” value [3] was “LS had activity in all samples except those treated with O-glycosidase” and the “hydrolysis of substrate, SDS-PAGE” value [4] was “full hydrolysis after overnight incubation”.
